According to patent publication US20150274826A1 (ARCH ONCOLOGY, published 2015):
Residue numbers refer to the chain shown, from its start. In names and notes the source's numbering stands.

T1: dog CD47 (dog, UniProt A0A8I3PM61 19-310)
T1 construct: also called CD47 on dog RBCs
T1 sequence: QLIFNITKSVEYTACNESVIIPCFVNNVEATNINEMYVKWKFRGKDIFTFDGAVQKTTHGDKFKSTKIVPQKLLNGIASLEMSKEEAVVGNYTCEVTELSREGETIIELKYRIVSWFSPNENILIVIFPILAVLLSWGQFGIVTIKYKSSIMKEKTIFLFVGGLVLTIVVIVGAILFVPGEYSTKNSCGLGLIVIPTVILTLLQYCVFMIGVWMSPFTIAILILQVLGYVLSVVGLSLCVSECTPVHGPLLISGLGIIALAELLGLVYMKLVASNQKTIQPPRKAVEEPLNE

T2: mouse CD47 (mouse, UniProt Q61735 19-303)
T2 construct: whole, on cells; also called CD47 on mouse RBCs; CD47 on 4T1 cells
T2 sequence (looked up): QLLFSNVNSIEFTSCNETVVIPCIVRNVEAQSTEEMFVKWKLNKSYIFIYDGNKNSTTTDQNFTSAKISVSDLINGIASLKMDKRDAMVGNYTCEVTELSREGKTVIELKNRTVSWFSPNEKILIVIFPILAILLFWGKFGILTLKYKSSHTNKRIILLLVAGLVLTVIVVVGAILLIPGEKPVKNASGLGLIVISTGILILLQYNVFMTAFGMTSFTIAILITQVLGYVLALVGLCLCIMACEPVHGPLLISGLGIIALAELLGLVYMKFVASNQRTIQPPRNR

T3: pig CD47 (pig, UniProt Q9GKE8 19-303)
T3 construct: whole, on cells; also called CD47 on porcine RBCs
T3 sequence (looked up): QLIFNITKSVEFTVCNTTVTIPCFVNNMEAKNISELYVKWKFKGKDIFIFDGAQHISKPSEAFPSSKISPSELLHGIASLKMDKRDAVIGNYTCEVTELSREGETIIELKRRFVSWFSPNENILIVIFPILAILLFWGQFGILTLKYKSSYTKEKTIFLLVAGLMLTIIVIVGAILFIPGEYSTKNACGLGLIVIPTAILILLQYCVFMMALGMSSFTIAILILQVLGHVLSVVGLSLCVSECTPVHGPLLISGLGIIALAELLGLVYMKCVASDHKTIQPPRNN

T4: rat CD47 (rat, UniProt P97829 19-303)
T4 construct: whole, on cells; also called CD47 on rat RBCs
T4 sequence (looked up): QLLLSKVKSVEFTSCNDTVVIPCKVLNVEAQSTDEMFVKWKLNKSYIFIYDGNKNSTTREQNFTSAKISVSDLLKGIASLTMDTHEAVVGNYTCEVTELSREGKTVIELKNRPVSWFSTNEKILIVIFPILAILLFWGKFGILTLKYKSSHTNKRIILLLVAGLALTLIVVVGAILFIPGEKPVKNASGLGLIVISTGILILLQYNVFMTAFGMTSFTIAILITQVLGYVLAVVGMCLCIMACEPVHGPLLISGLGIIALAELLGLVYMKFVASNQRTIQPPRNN

B1: Clone 1 (pVxK7b-037-hum01-LC / pVxK7b-037-hum01-HC) (antibody, human IgG1, kappa)
heavy: not shown
light: DIVMTQTPLSLPVTPGEPASISCRSSQSLVHSNGNTYLHWYQQKPGKAPKLLIYKVSYRFSGVPDRFSGSGSGTDFTLKISRVEAEDVGVYYCSQNTHVPRTFGQGTKVEIKRTVAAPSVFIFPPSDEQLKSGTASVVCLLNNFYPREAKVQWKVDNALQSGNSQESVTEQDSKDSTYSLSSTLTLSKADYEKHKVYACEVTHQGLSSPVTKSFNRGEC
notes: also called Cl 1
B2: Clone 13.1 (hum13 IgG1 N297Q) (antibody)
heavy: EVQLVQSGAEVKKPGESLRISCKGSGYTFTNYYVFWIRQSPSRGLEWLGDINPVNGDTNFNEKFKNRVTITADKSTSTAYMELSSLRSEDTAVYYCARGGYTMDYWGQGTLVTVSSASTKGPSVFPLAPSSKSTSGGTAALGCLVKDYFPEPVTVSWNSGALTSGVHTFPAVLQSSGLYSLSSVVTVPSSSLGTQTYICNVNHKPSNTKVDKKVEPKSCDKTHTCPPCPAPELLGGPSVFLFPPKPKDTLMISRTPEVTCVVVDVSHEDPEVKFNWYVDGVEVHNAKTKPREEQYQSTYRVVSVLTVLHQDWLNGKEYKCKVSNKALPAPIEKTISKAKGQPREPQVYTLPPSR
light: B1 light
notes: Fc mutant of Clone 13, IgG1 N297Q
B3: Clone 1.1 (hum01 IgG1 N297Q) (antibody)
heavy: QVQLQESGPGLVKPSQTLSLTCTVSGYTFTNYYVFWVRQARGQRLEWIGDINPVNGDTNFNEKFKNRVTISADKSISTAYLQWSSLKASDTAMYYCARGGYTMDYWGQGTLVTVSSASTKGPSVFPLAPSSKSTSGGTAALGCLVKDYFPEPVTVSWNSGALTSGVHTFPAVLQSSGLYSLSSVVTVPSSSLGTQTYICNVNHKPSNTKVDKKVEPKSCDKTHTCPPCPAPELLGGPSVFLFPPKPKDTLMISRTPEVTCVVVDVSHEDPEVKFNWYVDGVEVHNAKTKPREEQYQSTYRVVSVLTVLHQDWLNGKEYKCKVSNKALPAPIEKTISKAKGQPREPQVYTLPPSR
light: B1 light
notes: Fc mutant of Clone 1, IgG1 N297Q; also called Cl 1.1
B4: Clone 13 (pVxK7b-037-hum13-LC / pVxK7b-037-hum13-HC) (antibody, human IgG1, kappa)
heavy: not shown
light: B1 light
notes: also called Cl 13
B5: Clone 23.1 (hum23 IgG1 N297Q) (antibody)
heavy: QVQLQESGPGLVKPSQTLSLTCTVSGYTFTNYYVFWVRQARGQRLEWIGDINPVNGDTNFNEKFKNRLTISKDTSKNQVVLTMTNMDPVDTATYYCARGGYTMDYWGQGTLVTVSSASTKGPSVFPLAPSSKSTSGGTAALGCLVKDYFPEPVTVSWNSGALTSGVHTFPAVLQSSGLYSLSSVVTVPSSSLGTQTYICNVNHKPSNTKVDKKVEPKSCDKTHTCPPCPAPELLGGPSVFLFPPKPKDTLMISRTPEVTCVVVDVSHEDPEVKFNWYVDGVEVHNAKTKPREEQYQSTYRVVSVLTVLHQDWLNGKEYKCKVSNKALPAPIEKTISKAKGQPREPQVYTLPPSR
light: B1 light
notes: IgG1 N297Q
B6: Clone 23.2 (hum23 IgG4 S228P L235E) (antibody)
heavy: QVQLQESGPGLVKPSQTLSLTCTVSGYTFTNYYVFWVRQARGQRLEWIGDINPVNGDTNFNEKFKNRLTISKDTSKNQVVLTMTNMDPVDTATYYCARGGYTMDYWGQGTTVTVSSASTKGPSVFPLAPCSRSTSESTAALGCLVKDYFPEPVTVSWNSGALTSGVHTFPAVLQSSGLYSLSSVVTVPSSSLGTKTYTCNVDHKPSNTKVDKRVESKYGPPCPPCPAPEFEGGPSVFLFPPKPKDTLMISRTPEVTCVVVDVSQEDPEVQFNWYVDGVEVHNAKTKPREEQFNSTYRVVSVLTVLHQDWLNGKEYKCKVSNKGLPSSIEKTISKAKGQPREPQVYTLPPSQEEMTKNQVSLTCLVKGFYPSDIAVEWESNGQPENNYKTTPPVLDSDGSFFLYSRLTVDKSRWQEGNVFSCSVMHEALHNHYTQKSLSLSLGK
light: B1 light
notes: IgG4 S228P L235E
B7: Clone 20.2 (hum20 IgG4 S228P L235E) (antibody)
heavy: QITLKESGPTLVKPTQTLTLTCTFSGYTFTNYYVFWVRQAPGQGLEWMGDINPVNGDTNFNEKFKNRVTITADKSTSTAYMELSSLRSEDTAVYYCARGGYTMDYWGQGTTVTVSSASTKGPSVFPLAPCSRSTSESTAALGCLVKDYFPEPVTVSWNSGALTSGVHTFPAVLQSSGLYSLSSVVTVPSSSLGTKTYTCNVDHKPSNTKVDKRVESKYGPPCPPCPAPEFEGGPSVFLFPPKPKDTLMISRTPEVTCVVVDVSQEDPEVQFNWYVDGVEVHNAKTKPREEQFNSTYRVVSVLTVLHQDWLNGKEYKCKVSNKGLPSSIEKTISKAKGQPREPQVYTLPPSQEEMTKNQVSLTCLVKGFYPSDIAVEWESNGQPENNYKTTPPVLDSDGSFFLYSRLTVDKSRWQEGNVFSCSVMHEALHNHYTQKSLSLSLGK
light: B1 light with Q42L, K47Q, A48S, K50Q
notes: IgG4 S228P L235E
B8: Clone 20.1 (hum20 IgG1 N297Q) (antibody)
heavy: QITLKESGPTLVKPTQTLTLTCTFSGYTFTNYYVFWVRQAPGQGLEWMGDINPVNGDTNFNEKFKNRVTITADKSTSTAYMELSSLRSEDTAVYYCARGGYTMDYWGQGTLVTVSSASTKGPSVFPLAPSSKSTSGGTAALGCLVKDYFPEPVTVSWNSGALTSGVHTFPAVLQSSGLYSLSSVVTVPSSSLGTQTYICNVNHKPSNTKVDKKVEPKSCDKTHTCPPCPAPELLGGPSVFLFPPKPKDTLMISRTPEVTCVVVDVSHEDPEVKFNWYVDGVEVHNAKTKPREEQYQSTYRVVSVLTVLHQDWLNGKEYKCKVSNKALPAPIEKTISKAKGQPREPQVYTLPPSR
light: B1 light with Q42L, K47Q, A48S, K50Q
notes: IgG1 N297Q
B9: Clone 17.2 (hum17 IgG4 S228P L235E) (antibody)
heavy: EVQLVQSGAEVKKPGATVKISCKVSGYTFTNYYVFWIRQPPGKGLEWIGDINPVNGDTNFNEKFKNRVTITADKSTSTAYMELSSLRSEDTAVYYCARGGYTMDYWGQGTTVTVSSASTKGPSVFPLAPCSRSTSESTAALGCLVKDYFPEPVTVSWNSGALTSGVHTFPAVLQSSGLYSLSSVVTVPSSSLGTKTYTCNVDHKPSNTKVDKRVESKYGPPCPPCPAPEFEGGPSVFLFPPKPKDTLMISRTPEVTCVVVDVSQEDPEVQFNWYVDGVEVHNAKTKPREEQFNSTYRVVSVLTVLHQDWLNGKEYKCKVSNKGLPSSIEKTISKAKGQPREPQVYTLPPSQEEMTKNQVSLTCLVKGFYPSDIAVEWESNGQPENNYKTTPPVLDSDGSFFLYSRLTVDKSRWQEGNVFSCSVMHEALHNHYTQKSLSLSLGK
light: AIQLTQSPSSLSASVGDRVTITCRSSQSLVHSNGNTYLHWYQQKPGQAPRLLIYKVSYRFSGVPDRFSGSGSGTDFTLKISRVEAEDVGVYYCSQNTHVPRTFGQGTKVEIKRTVAAPSVFIFPPSDEQLKSGTASVVCLLNNFYPREAKVQWKVDNALQSGNSQESVTEQDSKDSTYSLSSTLTLSKADYEKHKVYACEVTHQGLSSPVTKSFNRGEC
notes: IgG4 S228P L235E

Each binder was assayed against T5, human CD47 (human, UniProt Q08722 19-323) (assay: flow cytometry on human RBCs, apparent Kd, non-linear fit).
T5 construct: whole, on cells; also called CD47 on human RBCs; CD47 on OV10 cells
T5 sequence (Q08722 19-323): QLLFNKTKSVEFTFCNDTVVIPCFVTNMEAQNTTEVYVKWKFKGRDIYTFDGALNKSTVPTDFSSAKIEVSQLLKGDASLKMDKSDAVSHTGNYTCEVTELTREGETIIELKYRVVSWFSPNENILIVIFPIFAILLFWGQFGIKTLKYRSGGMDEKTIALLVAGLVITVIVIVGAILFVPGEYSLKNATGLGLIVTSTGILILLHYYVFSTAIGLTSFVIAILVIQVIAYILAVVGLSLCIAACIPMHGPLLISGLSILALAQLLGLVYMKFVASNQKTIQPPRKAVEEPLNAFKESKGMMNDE
Protocol: (§1) RBCs are incubated for 60 minutes on ice with tissue culture supernatants containing the secreted humanized antibodies at a concentration of 10 ng/ml in a solution of phosphate buffered saline, pH 7.2, 2.5 mM EDTA (PBS+E), or with various concentrations of purified antibodies. Cells are then washed with cold PBS+E, and incubated for an additional hour on ice with FITC labeled donkey anti-human antibody (Jackson Immuno Research Labs, West Grove, Pa.; Catalogue #709-096-149) in PBS+E. Cells are then washed with PBS+E, and antibody binding is analyzed using a BD FACSAria Cell Sorter (Becton Dickinson) or a C6 Accuri Flow Cytometer (Becton Dickinson). Antibody binding is quantitated by comparison of mean fluorescence values relative to that of chimeric antibody >VxP037-01LC (SEQ ID NO:7))/>VxPO37-01HC (SEQ ID NO:57). The mean fluorescence value for each antibody is divided by the mean fluorescence value for the chimeric antibody.

| Kd | Binder |
| --- | --- |
| 1.51 nM | B1 |
| 1.21 nM | B2 |
| 2.04 nM | B3 |
| 0.58 nM | B4 |

These binders were tested against T5, human CD47 (assay: cell-based ELISA on human OV10 cells, apparent Kd).
Protocol: (§2) OV10 cells are grown in IMDM medium containing 10% heat inactivated fetal bovine serum (BioWest; S01520) and 4T1 cells are grown in RMPI medium containing 10% heat inactivated fetal bovine serum (BioWest; S01520). One day before assay, 3×10⁴ cells are plated in 96 well cell bind plates (Corning #3300, VWR #66025-626) so that they are 95-100% confluent at the time of assay. Cells are washed and various concentrations of purified antibodies added in either IMDM or RPMI at 37° C. for 1 hour in […]. Cells are then washed with media and incubated for an additional hour at 37° C. with HRP labeled secondary anti-human antibody (Promega) diluted 1/2500 in media. Cells are washed three times with PBS, and the peroxidase substrate 3,3′,5,5′-tetramethylbenzidine is added (Sigma; Catalog #T4444). Reactions are terminated by the addition of HCl to 0.7N, and absorbance at 450 nm is determined using a Tecan model Infinite M200 plate reader. The apparent binding affinities of these clones to human and mouse cells is determined by non-linear fits (Prism GraphPad software). […] Agglutination of human RBCs is assessed following incubation of human RBCs with various concentrations of humanized blocking only clones. Blood is diluted (1:50) and washed 3 times with PBS/EDTA/BSA. RBCs are added to U-bottomed 96 well plates with equal volumes of the antibodies (75 μl) and incubated for 3 hrs at 37° C. and overnight at 4° C.

| Kd | Binder |
| --- | --- |
| 0.0996 nM | B5 |
| 0.0886 nM | B2 |
| 0.148 nM | B3 |
| 0.195 nM | B6 |
| 0.114 nM | B7 |
| 0.121 nM | B8 |
| 0.121 nM | B9 |

The binders below were run against T1, dog CD47 (assay: flow cytometry on RBCs, CHO supernatant 10 ng/ml).
In short: (§3)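 RBCs incubated 60 min on ice with antibody supernatants at 10 ng/ml in PBS pH 7.2, 2.5 mM EDTA. Binding detected with FITC anti-human secondary (1 h, ice) by flow cytometry; fluorescence expressed relative to chimeric VxP037-01 reference.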

| mean fluorescence relative to chimeric antibody | Binder |
| --- | --- |
| 1 ratio | B1 |
| 1 ratio | B4 |

Each binder was assayed against T5, human CD47 (assay: flow cytometry on RBCs, CHO supernatant 10 ng/ml).
In short: as §3

| mean fluorescence relative to chimeric antibody | Binder |
| --- | --- |
| 1.1 ratio | B1 |
| 1.2 ratio | B4 |

The binders below were run against T2, mouse CD47 (assay: flow cytometry on RBCs, CHO supernatant 10 ng/ml).
In short: as §3

| mean fluorescence relative to chimeric antibody | Binder |
| --- | --- |
| 1.7 ratio | B1 |
| 1.3 ratio | B4 |

What follows are binders tested against T3, pig CD47 (assay: flow cytometry on RBCs, CHO supernatant 10 ng/ml).
In short: as §3

| mean fluorescence relative to chimeric antibody | Binder |
| --- | --- |
| 1.3 ratio | B1 |
| 1.4 ratio | B4 |

What follows are binders tested against T4, rat CD47 (assay: flow cytometry on RBCs, CHO supernatant 10 ng/ml).
In short: as §3

| mean fluorescence relative to chimeric antibody | Binder |
| --- | --- |
| 2.7 ratio | B1 |
| 3.1 ratio | B4 |

The binders below were run against T5, human CD47 (assay: flow cytometry on human RBCs, non-linear fit of median fluorescence).
Protocol: as §1

| Kd | Binder |
| --- | --- |
| 0.226 µg/mL | B1 |
| 0.183 µg/mL | B2 |
| 0.307 µg/mL | B3 |
| 0.0864 µg/mL | B4 |

The binders below were run against T2, mouse CD47 (assay: cell-based ELISA on mouse 4T1 cells, apparent Kd).
Protocol: as §2

| Kd | Binder |
| --- | --- |
| 0.0922 nM | B5 |
| 0.0867 nM | B2 |
| 0.132 nM | B3 |
| 0.192 nM | B6 |
| 0.354 nM | B7 |
| 0.237 nM | B8 |
| 0.147 nM | B9 |
